Molecular target: A1 domain of von Willebrandt factor (vWf), His-tagged A1 antigen (human) (UniProt P04275)
Assay: flow cytometry, yeast-displayed scFv with His-tagged A1 and Alexa-488 anti-His tag

percent of cells positive for A1 binding: 50 to 70%
Substance: scFv of the murine NMC-4 antibody, displayed on yeast (pYD-NMC4-scFv in EBY100) (from UniProt P32781 19-87)

Reference: patent US20080003617A1
